Measured values: patent US6294648A, “Protein having proteinase inhibitor activity” (Bayer Corporation, priority 1999, dated 2001)
Entries after “also recorded” stand apart in the source; their conditions may differ. Like-named read-outs stand apart in the source and are kept apart here.

Experiments:
[1] = target: plasma kallikrein (Homo sapiens, UniProt P03952); conditions: cited from earlier work
[2] = target: T1, proteinase 3 (Homo sapiens, UniProt P24158); conditions: cited from earlier work
T1 sequence (P24158 28-256): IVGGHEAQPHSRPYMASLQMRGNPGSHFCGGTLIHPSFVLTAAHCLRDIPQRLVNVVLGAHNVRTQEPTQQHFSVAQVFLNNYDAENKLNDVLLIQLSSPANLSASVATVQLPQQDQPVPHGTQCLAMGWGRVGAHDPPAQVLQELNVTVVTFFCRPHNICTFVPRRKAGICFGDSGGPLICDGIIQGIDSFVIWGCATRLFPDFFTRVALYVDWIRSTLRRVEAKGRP

[3] = tested on: neutrophil-induced ECM solubilization; conditions: cited from earlier work
[4] = target: T2, cathepsin G (Homo sapiens, UniProt P08311); conditions: cited from earlier work
T2 sequence (P08311 21-255): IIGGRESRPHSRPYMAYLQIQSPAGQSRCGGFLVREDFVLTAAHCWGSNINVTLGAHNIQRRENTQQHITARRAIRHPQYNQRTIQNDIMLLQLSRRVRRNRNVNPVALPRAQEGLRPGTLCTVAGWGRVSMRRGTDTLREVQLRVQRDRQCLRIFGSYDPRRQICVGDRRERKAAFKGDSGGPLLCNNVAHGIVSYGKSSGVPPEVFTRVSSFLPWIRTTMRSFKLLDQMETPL

[5] = target: T3, human neutrophil proteinase 3 (Homo sapiens, UniProt P24158); assay: Determination of equilibrium dissociation constants, proteinase 3; assay type: biochemical
T3 construct: purchased Athens Research and Technology, Inc. (Athens, Ga.)
T3 sequence (P24158 28-256): T1 sequence (P24158 28-256)
Description: (§1) The BTL.009 concentration was determined by amino acid analysis. The concentration of human neutrophil elastase, cathepsin G, and proteinase 3 were based on the manufacturer's specifications. […] Hydrolysis of AMC-conjugated peptides was monitored on a Hitachi model F4500 fluorometer (excitation=370 nm, emission=432 nm) over the first 2 minutes of the reaction. Ki* values were determined from plots of fractional rate versus inhibitor concentration, which were fit by nonlinear regression analysis (Enzifitter™ by Bio soft, Cambridge UK) as described (44). Ki values were obtained by correction for the effect of substrate as described (44).

[6] = target: T4, human neutrophil elastase (Homo sapiens, UniProt P08246); assay: Determination of equilibrium dissociation constants, neutrophil elastase; assay type: biochemical
T4 construct: purchased Athens Research and Technology, Inc. (Athens, Ga.)
T4 sequence (P08246 30-267): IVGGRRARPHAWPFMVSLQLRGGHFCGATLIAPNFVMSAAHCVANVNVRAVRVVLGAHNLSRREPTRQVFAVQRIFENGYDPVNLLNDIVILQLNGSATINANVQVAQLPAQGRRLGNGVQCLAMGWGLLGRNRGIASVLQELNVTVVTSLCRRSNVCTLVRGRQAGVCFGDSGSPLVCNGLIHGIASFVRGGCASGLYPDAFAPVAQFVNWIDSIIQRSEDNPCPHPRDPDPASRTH
Description: as §1

[7] = target: T5, human neutrophil cathepsin G (Homo sapiens, UniProt P08311); assay: Determination of equilibrium dissociation constants, cathepsin G; assay type: biochemical
T5 construct: purchased Athens Research and Technology, Inc. (Athens, Ga.)
T5 sequence (P08311 21-255): T2 sequence (P08311 21-255)
Description: as §1

[8] = tested on: trypsin; assay: Inhibitory activity of BTL.009 towards trypsin / trypsin-like proteinases; assay type: biochemical
[9] = target: T6, Bovine chymotrypsin (Bos taurus, UniProt P00766); assay: Chymotrypsin assay to monitor protein folding; assay type: biochemical
T6 construct: purchased Sigma (St. Louis, Mo.)
Description: To identify the properly folded form from reverse phase purification, the inhibition of chymotrypsin was measured. Chymotrypsin (20 nM) was incubated with refolded BTL.009 reverse phase fractions (0.04 absorbance units at 280 nm) in 100 μl of 50 MM Hepes (pH 7.5), 0.15 M NaCl, 2.0 mM CaCl2, and 0.01% Triton X-100 (buffer A) at 37° C. After 30 minutes, Suc-AAPF-pNa (100 μM final concentration) was added, after which the residual enzymatic formation of pNa was monitored at 410 nm.

[10] = target: chymotrypsin; conditions: cited from earlier work; for Ki: read-out: Ki, chymotrypsin
[11] = target: T7, leukocyte elastase (Homo sapiens, UniProt P08246); conditions: cited from earlier work
T7 sequence (P08246 30-267): T4 sequence (P08246 30-267)

[12] = tested on: platelets; conditions: cited from earlier work
[13] = target: thrombin (Homo sapiens, UniProt P00734); conditions: cited from earlier work
[14] = target: T8, trypsin (Bos taurus, UniProt P00760); conditions: cited from earlier work
T8 construct: gene PRSS1
T8 sequence (P00760 24-246): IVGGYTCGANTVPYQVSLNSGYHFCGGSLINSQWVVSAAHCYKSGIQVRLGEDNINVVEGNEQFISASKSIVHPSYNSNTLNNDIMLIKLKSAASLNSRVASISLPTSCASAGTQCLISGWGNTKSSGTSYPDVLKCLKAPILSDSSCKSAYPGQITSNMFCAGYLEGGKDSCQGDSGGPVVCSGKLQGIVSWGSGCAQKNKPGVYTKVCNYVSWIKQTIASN

[15] = read-out: Ki, leukocyte elastase

Chain of plasma kallikrein (P03952 20-638, species assumed): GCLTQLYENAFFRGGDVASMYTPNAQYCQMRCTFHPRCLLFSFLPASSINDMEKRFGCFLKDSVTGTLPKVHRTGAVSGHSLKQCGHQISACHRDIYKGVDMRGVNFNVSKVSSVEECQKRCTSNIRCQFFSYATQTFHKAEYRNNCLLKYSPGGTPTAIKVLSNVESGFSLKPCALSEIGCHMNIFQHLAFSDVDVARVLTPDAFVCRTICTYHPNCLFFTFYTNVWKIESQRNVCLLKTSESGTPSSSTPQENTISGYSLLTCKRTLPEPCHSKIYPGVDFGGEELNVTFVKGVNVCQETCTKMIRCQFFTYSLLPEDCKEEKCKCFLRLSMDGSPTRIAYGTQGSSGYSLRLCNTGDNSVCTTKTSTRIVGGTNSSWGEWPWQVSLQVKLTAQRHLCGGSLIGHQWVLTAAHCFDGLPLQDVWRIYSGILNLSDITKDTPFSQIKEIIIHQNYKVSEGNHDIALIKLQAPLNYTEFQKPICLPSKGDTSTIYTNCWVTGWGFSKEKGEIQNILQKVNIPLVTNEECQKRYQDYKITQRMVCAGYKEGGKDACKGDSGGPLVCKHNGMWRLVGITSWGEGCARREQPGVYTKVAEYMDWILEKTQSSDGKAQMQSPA

APP KD variant (T11D, P13H, M17A, 118H, S19P and F34Y): phage display / consensus mutant APP KD differing at 6 key residues; plasma kallikrein inhibitor
Ki [1]: ~0.015 nM
increase in binding affinity to plasma kallikrein compared to wild-type APP KD [1]: more than 10,000 fold

Alpha 1-proteinase inhibitor: a serpin family serine proteinase inhibitor; major serum inhibitor of elastase and cathepsin G
inhibition of proteinase 3, in words [2]: inhibit
inhibition of neutrophil-induced ECM solubilization [3]: completely or nearly completely inhibit
inhibition of cathepsin G, in words [4]: potent inhibitor
inhibition of cathepsin G, in words ([4]; listed as Alpha-1-proteinase): inhibit

BTL.009: synthetic, refolded peptide corresponding to the EST-derived human Kunitz domain KQDVCEMPKETGPCLAYFLHWWYDKKDNTCSMFVYGGCQGNNNNFQSKANCLNTC (SEQ ID NO:1)
inhibition of proteinase 3, in words [5]: moderate inhibitor
inhibition of leukocyte elastase, in words [6]: strong inhibitor; also recorded: elastase inhibitor
inhibition of cathepsin G, in words [7]: weak inhibitor
inhibitory activity towards trypsin compared with neutrophil neutral serine proteinase [8]: significantly greater inhibitory activity towards a neutral serine proteinase secreted by neutrophils than towards trypsin
expected activity towards trypsin-like proteinases ([8]; expected, not tested): little activity towards all trypsin-like proteinases
preference for chymotrypsin-like over trypsin-like proteases [9]: inhibit preferentially chymotrypsin-like proteases over trypsin-like proteases

TFPI: Tissue factor pathway inhibitor, another member of the Kunitz family
Ki [10]: 0.75 nM
Ki [11, 15]: 400 nM
Ki [4]: 100 to 200 nM

Tannin
inhibition of leukocyte elastase, in words [11]: specifically inhibits leukocyte elastase in an irreversible manner

Thrombospondin 1: inactivates cathepsin G by binding near the enzyme's active site
cathepsin G-mediated platelet aggregation [12]: blocked
inhibition of cathepsin G, in words [4]: inactivates cathepsin G

alpha 1-proteinase inhibitor [Arg358]: alpha 1-proteinase inhibitor P1 variant
inhibition of trypsin-like molecules such as thrombin, in words [13]: potent inhibitor
inhibition of leukocyte elastase, in words [11]: not of leukocyte elastase

alpha-2-macroglobulin: member of the serpin proteinase inhibitor family (as stated)
inhibition of leukocyte elastase, in words [11]: inhibit
inhibition of proteinase 3, in words [2]: inhibit
inhibition of cathepsin G, in words [4]: inhibit

aprotinin
Ki [10]: 1.3 nM
Ki [14]: 0.02 nM
inhibition of leukocyte elastase, in words [11]: does not inhibit

double mutant hPSTI variant: hPSTI with P1 lysine to leucine and P'1 isoleucine to glutamate (DSLGREAKCYNELNGCTLEYDPVCGTDGNTYPNECVLCFENRKRQTSILIQKSGPC; UniProt P00995 24-79, looked up, variant K18L I19E)
Ki [10]: 0.024 nM
Ki [11, 15]: 0.037 nM

elafin: member of the mucous proteinase inhibitor family (AQEPVKGPVSTKPGSCPIILIRCAMLNPPNRCLKDTDCPGIKKCCEGSCGMACFVPQ; Elafin; UniProt P19957 61-117, looked up)
Ki ([11]; read-out: Ki, elastase): 0.6 nM
inhibition of proteinase 3, in words [2]: not proteinase 3
inhibition of cathepsin G, in words [4]: not

hPSTI: a member of the Kazal serine proteinase family (DSLGREAKCYNELNGCTKIYDPVCGTDGNTYPNECVLCFENRKRQTSILIQKSGPC; UniProt P00995 24-79, looked up)
inhibition of chymotrypsin, in words [10]: completely inactive
inhibition of trypsin, in words [14]: potent inhibitor
inhibition of leukocyte elastase, in words [11]: completely inactive

single mutant hPSTI variant: hPSTI with P1 residue lysine substituted with leucine (DSLGREAKCYNELNGCTLIYDPVCGTDGNTYPNECVLCFENRKRQTSILIQKSGPC; UniProt P00995 24-79, looked up, variant K18L)
Ki [10]: 8 nM
inhibition of trypsin, in words [14]: inactive
Ki [11, 15]: 0.025 nM
